Assay [1] deals with rabbit αvβ3 receptor on rabbit smooth muscle cells (rabbit). The assay is described as follows: cell-based or functional assay.
The target in assay [2] is human vitronectin receptor αvβ3 purified from human placenta (human) (UniProt P06756). The assay is described as follows: BIAcore; immobilized αvβ3, mAb in solution.
Assay [3] has the same target. The assay can be described thus: BIAcore; αvβ3 in a hybrid bilayer membrane on the sensor, mAb at 100, 25, 6 nM in triplicate. (In general: In SPR one partner is held on a chip, and binding of the other changes the refractive index at the surface.)
Assay [4] shares this target. The assay is described as follows: competition: 1 ug/ml αvβ3 preincubated with unlabeled antibody, then binding of 1 ug/ml D12.
Assay [5] shares this target. The assay is described as follows: BIAcore, αvβ3 immobilized in a hybrid bilayer membrane on the sensor surface, mAb in solution.
Assay [6] shares this target. The assay is described as follows: ORIGEN competition: αvβ3-biotin (1 ug/ml) preincubated with unlabeled antibody, then 1 ug/ml Tag-LM609.

A word on the pKd: it is the negative decadic logarithm of the Kd, by convention in mol/L. A low value points to a large Kd. Usually % Inhibition stands for how much of the control response was suppressed. Read a low % Inhibition as a response near the control. Broadly, the koff is the rate constant with which the complex falls apart. As usually defined, the kon is the rate constant with which the complex forms.

pKd: −log10 of the molar value.

Regarding murine monoclonal antibody LM609, the Inhib (%) R-SMC (50 mg/ml) in assay [1] stood at 43%. The same substance gave a pKd in assay [2] of 8.42. For the same substance, the pKd in assay [3] was 9.34. Besides, in assay [4], the % Inhibition at 0.1 ug/ml is 3%, the % Inhibition at 1 ug/ml came to 29% and the % Inhibition at 10 ug/ml was 68%. Besides, in assay [5], the dissociation rate constant (koff) was determined as 0.00051 s⁻¹ and the kon worked out at 1.1e+06 M⁻¹ s⁻¹. Moreover, in assay [6], the % Inhibition at 0.1 ug/ml came out at 3%, the % Inhibition at 1 ug/ml turned out to be 41% and the % Inhibition at 10 ug/ml worked out at 79%.

Source of the values: patent publication US20030152571A1.
